Measured values published in paper PMC5734868 (ACS infectious diseases, 2017).

Target: the molecule itself
Assay: SDS-PAGE of semi-denatured protein

B1: M. tuberculosis aspartate decarboxylase PanD, wild type (enzyme)
chain: MLRTMLKSKIHRATVTCADLHYVGSVTIDADLMDAADLLEGEQVTIVDIDNGARLVTYAITGERGSGVIGINGAAAHLVHPGDLVILIAYATMDDARARTYQPRIVFVDAYNKPIDMGHDPAFVPENAGELLDPRLGVG
B1: binds.
